The term Km denotes the substrate concentration at which the rate is half of its maximum.

Holding throughout (conditions): Pseudomonas putida
Substrate in series [1]: O=C([O-])[C@H]([O-])c1ccccc1.[Mg+2]
Description: Michaelis-Menten constant of mandelate racemase was determined at pH 7.5
Substrate in series [2]: O=C([O-])[C@H]([O-])c1ccccc1.[Mg+2]
This is another data set of the same source.
Description: Michaelis-Menten constant of mandelate racemase was determined at pH 6.3

Substrate in series [3]: O=C([O-])[C@H]([O-])c1ccccc1.[Mg+2]
Description: Michaelis-Menten constant of mandelate racemase was determined at pH 8.7
The source holds these as a separate data set.

B1: Mandelate racemase (Pseudomonas putida), P11444 (protein)
chain: MSEVLITGLRTRAVNVPLAYPVHTAVGTVGTAPLVLIDLATSAGVVGHSYLFAYTPVALKSLKQLLDDMAAMIVNEPLAPVSLEAMLAKRFCLAGYTGLIRMAAAGIDMAAWDALGKVHETPLVKLLGANARPVQAYDSHSLDGVKLATERAVTAAELGFRAVKTKIGYPALDQDLAVVRSIRQAVGDDFGIMVDYNQSLDVPAAIKRSQALQQEGVTWIEEPTLQHDYEGHQRIQSKLNVPVQMGENWLGPEEMFKALSIGACRLAMPDAMKIGGVTGWIRASALAQQFGIPMSSHLFQEISAHLLAATPTAHWLERLDLAGSVIEPTLTFEGGNAVIPDLPGVGIIWREKEIGKYLV
For the protein B1, the results for the Km in series [1], in series [2] and in series [3] were 440 µM, 950 µM and 2020 µM, respectively.

The values above are taken from ChEMBL document CHEMBL1141065, “Inhibition of mandelate racemase by the substrate-intermediate-product analogue 1,1-diphenyl-1-hydroxymethylphosphonate” (Bioorg Med Chem Lett, 2005).
